Data published in patent US20130174289A1, “Na+/Mg2+ Exchanger” (FBN - Leibnitz-Institut fur Nutztierbiologie, published 2013).

Target: SLC41A1 (human)
Test: split-ubiquitin method screen (DUALmembrane SU-YTH) for SLC41A1 complex-forming partners

Chain of SLC41A1 (human) (chain, as listed by the source limits assumed): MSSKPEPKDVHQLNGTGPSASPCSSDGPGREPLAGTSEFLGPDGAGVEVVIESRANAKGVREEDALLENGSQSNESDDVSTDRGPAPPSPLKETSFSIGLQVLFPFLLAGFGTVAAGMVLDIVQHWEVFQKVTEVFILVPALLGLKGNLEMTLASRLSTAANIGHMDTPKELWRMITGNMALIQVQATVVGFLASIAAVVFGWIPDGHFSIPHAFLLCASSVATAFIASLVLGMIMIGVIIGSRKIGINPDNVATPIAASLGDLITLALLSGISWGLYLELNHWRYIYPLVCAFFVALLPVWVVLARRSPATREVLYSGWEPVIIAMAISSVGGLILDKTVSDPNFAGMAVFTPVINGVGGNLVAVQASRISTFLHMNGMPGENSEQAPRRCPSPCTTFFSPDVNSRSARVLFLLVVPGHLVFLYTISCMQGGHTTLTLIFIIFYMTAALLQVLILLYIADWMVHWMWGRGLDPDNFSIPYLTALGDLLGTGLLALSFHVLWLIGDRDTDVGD

occurrence	Binder
2 clones	Signal peptidase complex subunit 1 (other) MARGGDTGCTGPSETSASGAVAIAFPGLEGPPADAQYQTLALTVPKSWSPSPRSLPPALSCPPPQPAMLEHLSSLPTQMDYKGQKLAEQMFQGIILFSAIVGFIYGYVAEQFGWTVYIVMAGFAFSCLLTLPPWPIYRRHPLKWLPVQESSTDDKKPGERKIKRHAKNN
2 clones	Protein YIPF6 (other) MAEAEESPGDPGTASPRPLFAGLSDISISQDIPVEGEITIPMRSRIREFDSSTLNESVRNTIMRDLKAVGKKFMHVLYPRKSNTLLRDWDLWGPLILCVTLALMLQRDSADSEKDGGPQFAEVFVIVWFGAVTITLNSKLLGGNISFFQSLCVLGYCILPLTVAMLICRLVLLADPGPVNFMVRLFVVIVMFAWSIVASTAFLADSQPPNRRALAVYPVFLFYFVISWMILTFTPQ
2 clones	Transmembrane protein 147 (other) MTLFHFGNCFALAYFPYFITYKCSGLSEYNAFWKCVQAGVTYLFVQLCKMLFLATFFPTWEGGIYDFIGEFMKASVDVADLIGLNLVMSRNAGKGEYKIMVAALGWATAELIMSRCIPLWVGARGIEFDWKYIQMSIDSNISLVHYIVASAQVWMITRYDLYHTFRPAVLLLMFLSVYKAFVMETFVHLCSLGSWAALLARAVVTGLLALSTLALYVAVVNVHS
1 clones	UPF0480 protein C15orf24 homolog (other) SEVPGAAAEGSGGSGVGIGDRFKIEGRAVVPGVKPQDWISAARVLVDGEEHVGFLKTDGSFVVHDIPSGSYVVEVVSPAYRFDPVRVDITSKGKMRARYVNHIKTSEVVRLPYPLQMKSSGPPSYFIKRESWGWTDFLMNPMVMMMVLPLLIFVLLPKVVNTSDPDMRREMEQSMNMLNSNHELPDVSEFMTRLFSSKSSGKSSSGSSKTGKSGAGKRR
4 clones	UPF0480 protein C15orf24 (other) SEVPGAAAEGSGGSGVGIGDRFKIEGRAVVPGVKPQDWISAARVLVDGEEHVGFLKTDGSFVVHDIPSGSYVVEVVSPAYRFDPVRVDITSKGKMRARYVNYIKTSEVVRLPYPLQMKSSGPPSYFIKRESWGWTDFLMNPMVMMMVLPLLIFVLLPKVVNTSDPDMRREMEQSMNMLNSNHELPDVSEFMTRLFSSKSSGKSSSGSSKTGKSGAGKRR
2 clones	Transmembrane protein 14A (other) MDLIGFGYAALVTFGSIFGYKRRGGVPSLIAGLFVGCLAGYGAYRVSNDKRDVKVSLFTAFFLATIMGVRFKRSKKIMPAGLVAGLSLMMILRLVLLLL
2 clones	Uncharacterized protein C10orf35 (other) MVRILANGEIVQDDDPRVRTTTQPPRGSIPRQSFFNRGHGAPPGGPGPRQQQAGARLGAAQSPFNDLNRQLVNMGFPQWHLGNHAVEPVTSILLLFLLMMLGVRGLLLVGLVYLVSHLSQR
2 clones	Uncharacterized protein C4orf3 (other) MEVDAPGVDGRDGLRERRGFSEGGRQNFDVRPQSGANGLPKHSYWLDLWLFILFDVVVFLFVYFLP
3 clones	UPF0414 transmembrane protein C20orf30 (other) MMPSRTNLATGIPSSKVKYSRLSSTDDGYIDLQFKKTPPKIPYKAIALATVLFLIGAFLIIIGSLLLSGYISKGGADRAVPVLIIGILVFLPGFYHLRIAYYASKGYRGYSYDDIPDFDD
11 clones	Protein disulfide-isomerase A6 (enzyme) LYSSSDDVIELTPSNFNREVIQSDSLWLVEFYAPWCGHCQRLTPEWKKAATALKDVVKVGAVDADKHHSLGGQYGVQGFPTIKIFGSNKNRPEDYQGGRTGEAIVDAALSALRQLVKDRLGGRSGGYSSGKQGRSDSSSKKDVIELTDDSFDKNVLDSEDVWMVEFYAPWCGHCKNLEPEWAAAASEVKEQTKGKVKLAAVDATVNQVLASRYGIRGFPTIKIFQKGESPVDYDGGRTRSDIVSRALDLFSDNAPPPELLEIINEDIAKRTCEEHQLCVVAVLPHILDTGAAGRNSYLEVLLKLADKYKKKMWGWLWTEAGAQSELETALGIGGFGYPAMAAINARKMKFALLKGSFSEQGINEFLRELSFGRGSTAPVGGGAFPTIVEREPWDGRDGELPVEDDIDLSDVELDDLGKDEL
4 clones	Translocon-associated protein subunit gamma (other) MAPKGSSKQQSEEDLLLQDFSRNLSAKSSALFFGNAFIVSAIPIWLYWRIWHMDLIQSAVLYSVMTLVSTYLVAFAYKNVKFVLKHKVAQKREDAVSKEVTRKLSEADNRKMSRKEKDERILWKKNEVADYEATTFSIFYNNTLFLVVVIVASFFILKNFNPTVNYILSISASSGLIALLSTGSK

Continued, binder first:

Binder	occurrence
ATP synthase subunit a (Pan troglodytes) (other) MNENLFASFAAPTILGLPAAVLIILFPPLLVPTSKHLINNRLITTQQWLIQLTSKQMMTMHSTKGRTWSLMLVSLIIFITTTNLLGLLPHSFTPTTQLSMNLAMAIPLWAGAVVMGFRFKTKNALAHFLPQGTPTPLIPMLVIIETISLLIQPMALAVRLTANITAGHLLMHLIGSATLALSTINLPYALIIFTILILLTILEIAVALIQAYVFTLLVSLYLHDNT	1 clones
Probable ergosterol biosynthetic protein 28 (other) MSRFLNVLRSWLVMVSIIAMGNTLQSFRDHTFLYEKLYTGKPNLVNGLQARTFGIWTLLSSVIRCLCAIDIHNKTLYHITLWTFLLALGHFLSELFVYGTAAPTIGVLAPLMVASFSILGMLVGLRYLEVEPVSRQKKRN	2 clones
ATP synthase subunit a (Tachyglossus aculeatus aculeatus) (other) MNENLFASFITPTILGISILPLIMIFPCLLFSAPNRWMPNRLVALQLWLVRMVTKQMMSMHNKQGRMWTLMLITLIMFIASTNLLGLLPYTFTPTTQLSMNMGMAVPLWLGTVLMGFRNKPKSSLAHFLPQGTPTPLIPMLIIIETISLFIQPVALAVRLTANITAGHLLIHLIGSATLALSSISLTVSTITFTILFLLTILEIAVALIQAYVFTLLVSLYLHDNT	1 clones
B-cell receptor-associated protein 31 (other) MSLQWTAVATFLYAEVFVVLLLCIPFISPKRWQKIFKSRLVELLVSYGNTFFVVLIVILVLLVIDAVREIRKYDDVTEKVNLQNNPGAMEHFHMKLFRAQRNLYIAGFSLLLSFLLRRLVTLISQQATLLASNEAFKKQAESASEAAKKYMEENDQLKKGAAVDGGKLDVGNAEVKLEEENRSLKADLQKLKDELASTKQKLEKAENQVLAMRKQSEGLTKEYDRLLEEHAKLQAAVDGPMDKKEE	10 clones
Immediate early response 3-interacting protein 1 (other) MAFTLYSLLQAALLCVNAIAVLHEERFLKNIGWGTDQGIGGFGEEPGIKSQLMNLIRSVRTVMRVPLIIVNSIAIVLLLLFG	3 clones
ATP synthase subunit a (Cricetulus griseus) (other) MNENLFSSFITPTLMGLPIIILIIMFPPVIMTSSKRLVNNRFHTFQQWLIKLITKQMMAIHSPKGRTWSLMLASLIIFIGSTNLLGLLPHTFTPTTQLSMNLGMAIPPWAGAVILGFRHKMKDSLAHFLPQGTPIPLIPMLVIIETISLFIQPMALAVRLTANITAGHLLMHLIGGATLVLTSISLPTAMITFIILIMLTILEFAVALIQAYVFTLLVSLYLHDNT	1 clones
Peptidyl-prolyl cis-trans isomerase B (enzyme) not shown	5 clones
3-beta-hydroxysteroid-Delta(8), Delta(7)-isomerase (Rattus norvegicus) (enzyme) MTTNMLPLHPYWPRHLRLDNFVPNDLPTWHILVGLFSFSGVLIVITWLLSSRVSVVPLGTGRRLALCWFAVCTFIHLVIEGWFSFYHEILLEDQAFLSQLWKEYSKGDSRYILSDGFIVCMESVTACLWGPLSLWVVIAFLRHQPFRFVLQLVVSVGQIYGDVLYFLTELRDGFQHGELGHPLYFWFYFVIMNAIWLVIPGILVFDAIKHLTNAQSMLDNKVMKIKSKHN	1 clones
Kunitz-type protease inhibitor 2 (other) ADRERSIHDFCLVSKVVGRCRASMPRWWYNVTDGSCQLFVYGGCDGNSNNYLTKEECLKKCATVTENATGDLATSRNAADSSVPSAPRRQDSEDHSSDMFNYEEYCTANAVTGPCRASFPRWYFDVERNSCNNFIYGGCRGNKNSYRSEEACMLRCFRQQENPPLPLGSKVVVLAGLFVMVLILFLGASMVYLIRVARRNQERALRTVWSSGDDKEQLVKNTYVL	2 clones
ATP synthase subunit a (Homo sapiens) (other) MNENLFASFIAPTILGLPAAVLIILFPPLLIPTSKYLINNRLITTQQWLIKLTSKQMMTMHNTKGRTWSLMLVSLIIFIATTNLLGLLPHSFTPTTQLSMNLAMAIPLWAGTVIMGFRSKIKNALAHFLPQGTPTPLIPMLVIIETISLLIQPMALAVRLTANITAGHLLMHLIGSATLAMSTINLPSTLIIFTILILLTILEIAVALIQAYVFTLLVSLYLHDNT	1 clones
